Sequences and labels used below:
B1: I-1277 (peptide)
peptide: Ac-[αAllylPro]D[tBuAla][B5(3)]DDK(iPr)AFL[PyrS2″][Phe(2-Cl)][Bta]L-NH2
modifications: staple 1-4, 4-11
B2: I-1269 (peptide)
peptide: Ac-[αAllylPro]D[tBuAla][B5(3)]DTAAFT[PyrS2″][1Nal][Bta]S-NH2
modifications: staple 1-4, 4-11
B3: I-1276 (peptide)
peptide: Ac-[αAllylPro]D[tBuAla][B5(3)]DDK(iPr)AFL[PyrS2″][Phe(2-Cl)][Bta]T-NH2
modifications: staple 1-4, 4-11
B4: I-1273 (peptide)
peptide: Ac-[αAllylPro]D[tBuAla][B5(3)]DDK(iPr)AFT[PyrS2″][Phe(2-Cl)][Bta]T-NH2
modifications: staple 1-4, 4-11
B5: I-1278 (peptide)
peptide: Ac-[αAllylPro]D[tBuAla][B5(5)]DDAAFK(iPr)[PyrS2][Phe(2-Cl)][Bta]Q-NH2
modifications: staple 1-4, 4-11
B6: I-2607 (peptide)
peptide: BzAm2Allyl-XD[B5(3)]AD[Phe(3-COOH)]AAF[PyrS2]L[3Thi][Bta]Q-NH2
modifications: staple 3-10; staple (positions not given here); not fully specified (residue 1, bridges); printed as BzAm2Allyl-MePro-Asp-B5-Ala-Asp-3COOHF-Ala-Ala-Phe-PyrS2-Leu-3Thi-BztA-Gln-NH2; also: -CH=CH- in each staple reduced to -CH2-CH2-
B7: I-2606 (peptide)
peptide: BzAm2Allyl-XD[B5(3)]ADDAAF[PyrS2]L[3Thi][Bta]Q-NH2
modifications: staple 3-10; staple (positions not given here); not fully specified (residue 1, bridges); printed as BzAm2Allyl-MePro-Asp-B5-Ala-Asp-Asp-Ala-Ala-Phe-PyrS2-Leu-3Thi-BztA-Gln-NH2; also: -CH=CH- in each staple reduced to -CH2-CH2-
B8: I-2604 (peptide)
peptide: 5hexenyl-XD[B5(3)]AD[Phe(3-COOH)]AAF[PyrS2]L[3Thi][Bta]Q-NH2
modifications: staple 3-10; staple (positions not given here); not fully specified (residue 1, bridges); printed as 5hexenyl-MePro-Asp-B5-Ala-Asp-3COOHF-Ala-Ala-Phe-PyrS2-Leu-3Thi-BztA-Gln-NH2; also: -CH=CH- in each staple reduced to -CH2-CH2-
B9: I-2608 (peptide)
peptide: 3butenyl-XD[B5(3)]ADDAAF[PyrS2]L[3Thi][Bta]Q-NH2
modifications: staple 3-10; staple (positions not given here); not fully specified (residue 1, bridges); printed as 3butenyl-MePro-Asp-B5-Ala-Asp-Asp-Ala-Ala-Phe-PyrS2-Leu-3Thi-BztA-Gln-NH2; also: -CH=CH- in each staple reduced to -CH2-CH2-
B10: I-2609 (peptide)
peptide: 5hexenyl-XD[B5(3)]ADDAAF[PyrS2]L[3Thi][Bta]Q-NH2
modifications: staple 3-10; staple (positions not given here); not fully specified (residue 1, bridges); printed as 5hexenyl-MePro-Asp-B5-Ala-Asp-Asp-Ala-Ala-Phe-PyrS2-Leu-3Thi-BztA-Gln-NH2; also: -CH=CH- in each staple reduced to -CH2-CH2-
B11: I-2603 (peptide)
peptide: 4pentenyl-XD[B5(3)]AD[Phe(3-COOH)]AAF[PyrS2]L[3Thi][Bta]Q-NH2
modifications: staple 3-10; staple (positions not given here); not fully specified (residue 1, bridges); printed as 4pentenyl-MePro-Asp-B5-Ala-Asp-3COOHF-Ala-Ala-Phe-PyrS2-Leu-3Thi-BztA-Gln-NH2
B12: I-2605 (peptide)
peptide: 4pentenyl-XD[B5(3)]AD[Phe(3-COOH)]AAF[PyrS2]L[3Thi][Bta]Q-NH2
modifications: staple 3-10; staple (positions not given here); not fully specified (residue 1, bridges); printed as 4pentenyl-MePro-Asp-B5-Ala-Asp-3COOHF-Ala-Ala-Phe-PyrS2-Leu-3Thi-BztA-Gln-NH2; also: -CH=CH- in each staple reduced to -CH2-CH2-

Starred links: 1 amine or outer side, 2 acyl side, 3 side chain; linkers in the order of their positions; H or OH if unused. Positions of bridges follow the written chain, without caps; N, C: chain ends. Non-standard residues stand in square brackets, D forms with d. Primed or numbered codes have the meaning given here. *: point of attachment. PyrS2″ = (S)-3-amino-1-((pent-4-en-1-yloxy)carbonyl)pyrrolidine-3-carboxylic acid (stapling residue), C=CCCCOC(=O)N1CC[C@@](N[*:1])(C(=O)[*:2])C1; B5(5) = 2,2-bis(4-pentenyl)glycine, 2-amino-2-(pent-4-en-1-yl)hept-6-enoic acid (stitching residue), C=CCCCC(CCCC=C)(N[*:1])C(=O)[*:2]; PyrS2 = (S)-3-amino-1-((pent-4-en-1-yloxy)carbonyl)pyrrolidine-3-carboxylic acid, C=CCCCOC(=O)N1CC[C@@](N[*:1])(C(=O)[*:2])C1; B5(3) = 2,2-bis(4-pentenyl)glycine (stitching residue), C=CCCCC(CCCC=C)(N[*:1])C(=O)[*:2]; BzAm2Allyl = N-terminal 2-allylbenzoic acid (acyl cap), C=CCc1ccccc1C(=O)*; 4pentenyl = N-terminal pent-4-enoic acid (acyl cap), C=CCCC(=O)*; 5hexenyl = N-terminal hex-5-enoic acid (acyl cap), C=CCCCC(=O)*; 3butenyl = N-terminal but-3-enoic acid (acyl cap), C=CCC(=O)*; Phe(3-COOH) = N[C@@H](Cc1cccc(C(=O)O)c1)C(=O)O; Phe(2-Cl) = N[C@@H](Cc1ccccc1Cl)C(=O)O; 1Nal = N[C@@H](Cc1cccc2ccccc12)C(=O)O; Bta = N[C@@H](Cc1csc2ccccc12)C(=O)O; Lys(iPr) = CC(C)NCCCC[C@H](N)C(=O)O; αAllylPro = C=CC[C@@]1(C(=O)O)CCCN1; tBuAla = CC(C)(C)C[C@H](N)C(=O)O; 3Thi = N[C@@H](Cc1ccsc1)C(=O)O; iPr = CC(C)* A value given as a limit tells only on which side of the number the result lay.

Chain of Bcat-Halo (P35222 whole entry): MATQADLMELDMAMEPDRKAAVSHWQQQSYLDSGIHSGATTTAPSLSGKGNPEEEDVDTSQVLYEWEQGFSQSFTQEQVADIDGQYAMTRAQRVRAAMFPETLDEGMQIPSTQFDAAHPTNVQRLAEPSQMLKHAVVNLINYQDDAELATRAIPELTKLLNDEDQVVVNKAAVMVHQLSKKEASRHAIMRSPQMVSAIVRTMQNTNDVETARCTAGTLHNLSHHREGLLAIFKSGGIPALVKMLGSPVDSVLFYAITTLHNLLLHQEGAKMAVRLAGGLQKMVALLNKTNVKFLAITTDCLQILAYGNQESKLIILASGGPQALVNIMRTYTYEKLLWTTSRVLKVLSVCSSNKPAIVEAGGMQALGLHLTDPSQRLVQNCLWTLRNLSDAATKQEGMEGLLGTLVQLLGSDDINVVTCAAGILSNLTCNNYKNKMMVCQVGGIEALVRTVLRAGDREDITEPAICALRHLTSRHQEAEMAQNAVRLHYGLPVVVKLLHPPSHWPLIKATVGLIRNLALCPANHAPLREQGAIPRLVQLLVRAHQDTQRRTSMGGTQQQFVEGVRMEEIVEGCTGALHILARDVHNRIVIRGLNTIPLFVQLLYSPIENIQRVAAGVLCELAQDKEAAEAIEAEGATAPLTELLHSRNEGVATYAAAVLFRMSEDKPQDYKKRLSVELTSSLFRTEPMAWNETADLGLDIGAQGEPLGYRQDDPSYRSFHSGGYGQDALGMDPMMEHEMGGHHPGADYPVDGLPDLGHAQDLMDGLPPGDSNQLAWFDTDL

The target of one assay is full-length beta-Catenin (Uniprot ID P35222) (Homo sapiens (Human)) (UniProt P35222). The assay is described as follows: fluorescence polarization competition against 5FAM-TCF4(10-53) on full-length beta-catenin.
Chain of full-length beta-Catenin (Uniprot ID P35222) (Homo sapiens (Human)) (P35222 whole entry, one chain of several): as the sequence (P35222 whole entry) above
For the molecule B1, the 50% inhibitory concentration (IC50) was 17 nM. This counts as double-digit nanomolar.
The same measure, in the same setting: as for B2, the figure is 173 nM; as for B3, 10 nM.
Still for that read-out and setting: as for B4, the figure is 9 nM; as for B5, 10 nM.

Another assay has the same target. The assay can be described thus: cell-based or functional assay.
As to B6, the DLD1 4% Abs IC50 is over 20 µM.
The same measure, in the same setting: as for B7, the figure is over 20 µM.

A further assay shares this target. The assay is described as follows: fluorescence polarization competition against 5FAM TCF4 10-53 probe.
In turn, B6 returned an IC50 of 904 nM.
Turning to B8, the IC50 was 1120 nM.
In the case of B7, the IC50 was found to be 734 nM.
The same measure, in the same setting: in the case of B9 it was 251 nM.
Same read-out and setting: as for B10, the figure is 2650 nM; as for B11, 767 nM.
The same measure, in the same setting: in the case of B12 it was 608 nM.

A further assay shares this target. The assay is described as follows: fluorescence polarization competition; full-length beta-catenin + 5FAM-TCF4(10-53) probe.
Consider B1, for which the EC50 turned out to be 17 nM.
In the case of B2, the EC50 was 173 nM.
On the same count and under the same terms, as for B3, the figure is 10 nM; as for B4, 9 nM; as for B5, 10 nM.

A further assay addresses Bcat-Halo (UniProt P35222). The assay can be described thus: NanoBRET Abs IC50, HEK293 cells, Bcat-Halo/TCF4-Luc; competitor TCF4-Luc.
Take B1: the IC50 is over 20 µM.
The same measure, in the same setting: in the case of B2 it was 17.6 µM.
Same read-out and setting: in the case of B3 it was over 20 µM; in that of B4, over 20 µM.
As to B5, the IC50 was determined as 18 µM.

These data come from patent US20240116985A1, “STAPLED PEPTIDES AND METHODS THEREOF” (priority 2020, published 2024).
